Data reported in US20100086538A1 (UCB, published 2010).
Where “and” joins values, the source holds several entries; their conditions need not be identical. Identical values can stand only once.

Legend:
[1] = biological target: T1, recombinant human IL-17 (R & D systems) (human, UniProt Q16552 20-155, limits assumed); experiment: cell-based or functional assay
T1 sequence (looked up): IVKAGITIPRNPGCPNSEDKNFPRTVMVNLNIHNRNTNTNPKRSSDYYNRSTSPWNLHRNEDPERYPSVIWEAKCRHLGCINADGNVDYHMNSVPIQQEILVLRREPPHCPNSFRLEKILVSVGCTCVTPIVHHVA

[2] = biological target: T2, mammalian cell (CHO) derived human IL-17 (human, UniProt Q16552 24-155); experiment: cell-based or functional assay
T2 sequence (looked up): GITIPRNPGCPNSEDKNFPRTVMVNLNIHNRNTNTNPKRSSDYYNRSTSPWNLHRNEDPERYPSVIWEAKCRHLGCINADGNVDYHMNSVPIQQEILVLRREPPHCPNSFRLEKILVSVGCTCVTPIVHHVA

[3] = biological target: T1, recombinant human IL-17 (R & D systems); experiment: BIAcore 3000, antibody captured by anti-human IgG Fc, IL-17 as analyte
Experimental: (§1) BIA (Biamolecular Interaction Analysis) was performed using a BIAcore 3000 (BIAcore AB). Affinipure F(ab′)₂ Fragment goat anti-human IgG, Fc (Jackson ImmunoResearch) was immobilised on a CM5 Sensor Chip via amine coupling chemistry to a capture level of ≈8000 response units (RUs). HBS-EP buffer (10 mM HEPES pH 7.4, 0.15 M NaCl, 3 mM EDTA, 0.005% Surfactant P20, BIAcore AB) was used as the running buffer with a flow rate of 10 μL/min. A 10 μL injection of CA028_{—}497.g2 was used for capture by the immobilised anti-human IgG-F(ab)₂. IL-17 was titrated over the captured CA028_{—}497.g2 at various concentrations at a flow rate of 30 μL/min. The surface was regenerated by a 30 μL injection of 40 mM HCl, followed by a 10 μL injection of 5 mM NaOH.
(§2) Background subtraction binding curves were analysed using the BIAevaluation software (version 3.2) following standard procedures. Kinetic parameters were determined from the fitting algorithm.
(§3) The concentrations of IL-17 from different non-human primate (NHP) species expressed transiently were estimated relative to human IL-17 and these concentrations were then used to determine the affinities of the IL-17s. The affinity was measured at IL-17 concentrations at or below 25 nM. […] The concentration of transient cynomolgus IL-17 and transient marmoset IL-17 was estimated based on equivalent human IL-17 binding.

[4] = biological target: T3, cynomolgus monkey IL-17 (expressed transiently) (cynomolgus monkey, UniProt A0A2K5TTB0 24-155); experiment: as above
T3 construct: also called transient cynomolgus IL-17
T3 sequence: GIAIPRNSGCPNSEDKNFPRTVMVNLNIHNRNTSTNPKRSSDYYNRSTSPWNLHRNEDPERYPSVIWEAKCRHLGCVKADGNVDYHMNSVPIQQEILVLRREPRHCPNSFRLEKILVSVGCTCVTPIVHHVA
Experimental: as §1, §2, §3

[5] = biological target: T4, marmoset IL-17 (expressed transiently) (marmoset, UniProt A0ACM8QD00 24-153); experiment: as above
T4 construct: also called marmoset 06073130c; transient marmoset IL-17
T4 sequence: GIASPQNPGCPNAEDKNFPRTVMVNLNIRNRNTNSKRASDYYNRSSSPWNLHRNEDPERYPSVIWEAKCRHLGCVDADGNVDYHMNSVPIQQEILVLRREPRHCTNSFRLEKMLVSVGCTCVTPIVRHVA
Experimental: as §1, §2, §3

[6] = biological target: T3, cynomolgus monkey IL-17 (expressed …); experiment: BIAcore 3000, antibody captured by anti-human IgG Fc, IL-17 as analyte; analyte concentration estimated
Experimental: as §1, §2, §3

[7] = biological target: T4, marmoset IL-17 (expressed transiently); experiment: as above
Experimental: as §1, §2, §3

[8] = biological target: T3, cynomolgus monkey IL-17 (expressed …); experiment: BIAcore 3000, antibody captured by anti-human IgG Fc, IL-17 as analyte; analyte concentration estimated; transient cynomolgus IL-17, concentration estimated
Experimental: as §1, §2, §3

B1: antibody CA028-497.g2 (antibody, human IgG4 S228P, kappa, V domains shown)
VH: EVQLVESGGGLVKPGGSLRLSCAASGVIFSDYYMAWVRQAPGKGLEWVASINFNADISYYRESVKGRFTISRDDSKNTLYLQMNSLKTEDTAVYYCTTDANRQNYDWFAYWGQGTLVTVSS
VL: AIQLTQSPSSLSASVGDRVTITCKASESVSSSMYSYMHWYQQKPGKAPKLLIYRASNLESGVPSRFSGSGSGTDFTLTISSLQPEDFATYYCQQSWTAPRTFGQGTKVEIKR
notes: Humanised IgG4 (S241P) kappa antibody made in CHO cells; also called CA048-497.g2; CA048 497.g2
What does the source list for B1?
IC50, inhibition of IL-17 induced IL-6 production in Hela cells [1]: 51 ng/mL and 0.34 nM; IC50, inhibition of IL-17 induced IL-6 production in Hela cells [2]: 103 ng/mL and 0.7 nM; Kd [3]: 6.28 pM and 6.3 pM; koff [3]: 7.38e-06 s⁻¹; kon [3]: 1.86e+06 M⁻¹ s⁻¹; koff [4]: 1.68e-05 s⁻¹; koff [5]: 1.46e-05 s⁻¹; Kd [6]: 10.7 pM; Kd [7]: 12.9 pM; kon [7]: 1.13e+06 M⁻¹ s⁻¹; kon [8]: 1.57e+06 M⁻¹ s⁻¹
